Results: patent publication US20250042956A1 (University of California, published 2025)

Columns and labels:
[1] = target: T1, AT3G20740.1 FIE (Arabidopsis thaliana, UniProt Q9LT47 1-369); assay: IP-MS rep 2
T1 construct: Endogenous protein found by mass spectrometry; also called FERTILIZATION INDEPENDENT ENDOSPERM
T1 sequence (looked up): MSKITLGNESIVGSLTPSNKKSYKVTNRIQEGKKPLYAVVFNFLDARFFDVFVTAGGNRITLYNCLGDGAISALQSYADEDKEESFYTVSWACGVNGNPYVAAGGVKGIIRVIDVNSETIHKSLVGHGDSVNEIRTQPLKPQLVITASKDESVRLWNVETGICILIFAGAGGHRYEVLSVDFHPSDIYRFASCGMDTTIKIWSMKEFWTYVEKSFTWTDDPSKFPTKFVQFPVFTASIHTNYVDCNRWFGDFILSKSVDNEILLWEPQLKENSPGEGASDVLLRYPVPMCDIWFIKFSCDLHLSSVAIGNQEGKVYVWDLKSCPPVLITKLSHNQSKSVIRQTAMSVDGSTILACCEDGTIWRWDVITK
Procedure, shortened: (§1)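 Peptide counts for co-purified proteins come from mass spectrometry of proteins pulled down from Arabidopsis floral buds with anti-FLAG magnetic beads. Ten grams of unopened buds from wild-type and FLAG-tagged transgenic lines were ground in liquid nitrogen and homogenised in 25 mL IP buffer. Lysates were held with 250 μL anti-FLAG M2 magnetic beads at 4° C for 2 hours, and bound proteins were eluted in TBS with 250 μg/mL 3×FLAG peptides.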

[2] = target: T2, AT1G49950.3 TRB1 (Arabidopsis thaliana, UniProt Q8VWK4 1-300, limits assumed); assay: IP-MS rep 2
T2 construct: Endogenous protein found by mass spectrometry
T2 sequence: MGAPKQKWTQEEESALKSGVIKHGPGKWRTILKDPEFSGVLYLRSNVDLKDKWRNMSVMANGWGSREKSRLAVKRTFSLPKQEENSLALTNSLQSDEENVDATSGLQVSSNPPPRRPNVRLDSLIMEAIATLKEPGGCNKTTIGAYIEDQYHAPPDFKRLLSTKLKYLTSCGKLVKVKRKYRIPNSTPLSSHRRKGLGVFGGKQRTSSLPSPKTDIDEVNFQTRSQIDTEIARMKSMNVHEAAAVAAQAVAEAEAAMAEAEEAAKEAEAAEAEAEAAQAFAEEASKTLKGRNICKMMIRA
Procedure, shortened: as §1

[3] = target: T3, AT3G10480.3 NAC050 (Arabidopsis thaliana, UniProt Q9SQX9 1-447, limits assumed); assay: IP-MS rep 2
T3 construct: Endogenous protein found by mass spectrometry
T3 sequence (looked up): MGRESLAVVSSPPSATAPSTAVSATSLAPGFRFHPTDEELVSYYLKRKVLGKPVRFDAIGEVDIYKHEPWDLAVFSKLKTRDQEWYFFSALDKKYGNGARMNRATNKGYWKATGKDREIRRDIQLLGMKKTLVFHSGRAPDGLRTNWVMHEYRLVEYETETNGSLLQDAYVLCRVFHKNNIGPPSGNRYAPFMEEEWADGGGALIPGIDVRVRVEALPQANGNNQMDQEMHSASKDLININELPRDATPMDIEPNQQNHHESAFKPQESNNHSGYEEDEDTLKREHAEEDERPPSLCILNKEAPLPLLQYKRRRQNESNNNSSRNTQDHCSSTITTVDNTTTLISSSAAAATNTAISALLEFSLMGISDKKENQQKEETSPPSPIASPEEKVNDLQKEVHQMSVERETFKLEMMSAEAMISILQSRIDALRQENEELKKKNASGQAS
Procedure, shortened: as §1

[4] = target: T4, AT5G51230.1 EMF2 (Arabidopsis thaliana, UniProt Q8L6Y4 1-631); assay: IP-MS rep 1
T4 construct: Endogenous protein found by mass spectrometry; also called EMBRYONIC FLOWER 2
T4 sequence (looked up): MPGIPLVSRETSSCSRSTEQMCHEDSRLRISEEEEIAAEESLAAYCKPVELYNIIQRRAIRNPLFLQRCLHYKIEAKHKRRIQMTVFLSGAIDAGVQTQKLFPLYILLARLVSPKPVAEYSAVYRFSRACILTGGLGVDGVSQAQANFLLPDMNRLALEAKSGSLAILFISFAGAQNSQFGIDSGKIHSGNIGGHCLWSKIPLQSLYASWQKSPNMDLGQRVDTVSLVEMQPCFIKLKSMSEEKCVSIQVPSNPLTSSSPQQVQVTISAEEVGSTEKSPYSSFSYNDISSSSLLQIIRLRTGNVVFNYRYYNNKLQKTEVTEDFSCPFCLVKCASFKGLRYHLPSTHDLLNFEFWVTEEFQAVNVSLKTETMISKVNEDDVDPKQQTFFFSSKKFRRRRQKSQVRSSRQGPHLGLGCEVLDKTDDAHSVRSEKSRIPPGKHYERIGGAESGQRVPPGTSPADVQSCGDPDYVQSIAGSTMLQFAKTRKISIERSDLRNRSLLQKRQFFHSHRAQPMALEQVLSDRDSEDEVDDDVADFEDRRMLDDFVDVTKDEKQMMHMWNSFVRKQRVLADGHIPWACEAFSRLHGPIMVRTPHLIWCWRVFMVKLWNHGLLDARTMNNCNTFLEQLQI
Procedure, shortened: as §1

[5] = target: T2, AT1G49950.3 TRB1; assay: IP-MS rep 1
Procedure, shortened: as §1

[6] = target: T5, AT5G67580.1 TRB2 (Arabidopsis thaliana, UniProt Q9FJW5 1-299); assay: IP-MS rep 1
T5 construct: Endogenous protein found by mass spectrometry
T5 sequence: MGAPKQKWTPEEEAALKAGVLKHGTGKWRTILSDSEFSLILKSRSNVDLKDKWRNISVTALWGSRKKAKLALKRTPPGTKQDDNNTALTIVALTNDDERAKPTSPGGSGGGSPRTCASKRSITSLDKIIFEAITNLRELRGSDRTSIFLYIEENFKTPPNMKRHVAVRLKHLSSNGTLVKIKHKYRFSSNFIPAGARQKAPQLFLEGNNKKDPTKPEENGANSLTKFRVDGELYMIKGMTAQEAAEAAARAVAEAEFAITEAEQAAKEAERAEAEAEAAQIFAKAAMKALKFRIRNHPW
Procedure, shortened: as §1

IP-MS count [1]: 0 | IP-MS count [2]: 5 | IP-MS count [3]: 0 | IP-MS count [4]: 0 | IP-MS count [5]: 26 | IP-MS count [6]: 43
B1: TRBIP2 (bait of the TRBIP2 IP-MS) (other, not shown: small tags and cut ends)
chain: MATNACLESDSLLPPRKRLLAGFKNQNSRISNESPSPPFASSSSSTTTSNGSSASAVVHTHHLDHLLNDQTRSPEELAQASKATAALAVKVAKAARATANEKAIIASKAVAAAKNALELFASFPAAETVSCKEPRLIRAINNSPRVLTDCSGHRNKKQKTLTSTMNDGNDVAGVVDSDDGTRVNGKLLLCDNTLKEKTEEESSSLGKRRGRVKLPLSMCAYKDQENGITLEENNLSVSKSEGYNGGVAQVIERPSWKCQDLKSPECVKQNKVVRS
notes: tag and its position not described; also called TRBIP2-1; TRBIP2-2
